# Earlier results as cited in patent publication US10227617B2, “Sequestration of carbon dioxide with hydrogen to useful products” (UNIVERSITY OF GEORGIA RESEARCH FOUNDATION, INC., priority 2012, dated 2019).
# B1: Msed_1456: M. sedula 3-hydroxypropionate:CoA ligase, SEQ ID NO:6 (protein, listed as Metallosphaera sedula)
# chain: MFMRYIMVEEQTLKTGSQELEEKADYNMRYYAHLMKLSKEKPAEFWGSLAQDLLDWYEPWKETMRQEDPMTRWFIGGKINASYNAVDRHLNGPRKFKAAVIWESELGERKIVTYQDMFYEVNRWANALRSLGVGKGDRVTIYMPLTPEGIAAMLASARIGAIHSVIFAGFGSQAIADRVEDAKAKVVITADAYPRRGKVVELKKTVDEALNSLGERSPVQHVLVYRRMKTDVNMKEGRDVFFDEVGKYRYVEPERMDSNDPLFILYTSGTTGKPKGIMHSTGGYLTGTAVMLLWSYGLSQENDVLFNTSDIGWIVGHSYITYSPLIMGRTVVIYESAPDYPYPDKWAEIIERYRATTFGTSATALRYFMKYGDEYVKNHDLSSIRIIVTNGEVLNYSPWKWGLEVLGGGKVFMSHQWWQTETGAPNLGYLPGIIYMPMKSGPASGFPLPGNFVEVLDENGNPSAPRVRGYLVMRPPFPPNMMMGMWNDNGERLKKTYFSKFGSLYYPGDFAMVDEDGYIWVLGRADETLKIAAHRIGAGEVESAITSHPSVAEAAVIGVPDSVKGEEVHAFVVLKQGYAPSSELAKDIQSHVRKVMGPIVSPQIHFVDKLPKTRSGKVMRRVIKAVMMGSSAGDLTTIEDEASMDEIKKAVEELKKELKTS
# Conditions: reported data, FIG. 4; cited from earlier work
molecule,measurement,value
B1,activity on 3-hydroxybutyrate,> 1%
